The record followed here is publication PMC4698195 (Carbohydrate research, 2015).

In data set [1] the target is UDP-N-acetylglucosamine (UDP-GlcNAc) 2-epimerase (NmSacA) (Neisseria meningitidis, UniProt A0A0U1RGY0). The class given is biochemical.
Data set [2] deals with CC(=O)N[C@@H]1[C@@H](OP(=O)(O)OP(=O)(O)OC[C@H]2O[C@@H](N3CCC(=O)NC3=O)[C@H](O)[C@@H]2O)O[C@H](CO)[C@@H](O)[C@@H]1O. Briefly: purified protein.
The subject of data set [3] is CC(=O)N[C@@H]1[C@@H](OP(=O)(O)OP(=O)(O)OC[C@H]2O[C@@H](n3ccc(=O)[nH]c3=O)[C@H](O)[C@@H]2O)O[C@H](CO)[C@@H](O)[C@@H]1O. Briefly: purified protein.
Data set [4] deals with CC(=O)N[C@H]1[C@@H](OP(=O)(O)OP(=O)(O)OC[C@H]2O[C@@H](n3ccc(=O)[nH]c3=O)[C@H](O)[C@@H]2O)O[C@H](CO)[C@@H](O)[C@@H]1O. Briefly: purified protein.
Data set [5] deals with CCC(=O)N[C@@H]1[C@@H](OP(=O)(O)OP(=O)(O)OC[C@H]2O[C@@H](n3ccc(=O)[nH]c3=O)[C@H](O)[C@@H]2O)O[C@H](CO)[C@@H](O)[C@@H]1O. The data set is described as follows: purified protein.
In data set [6] the test system is O=C(CO)N[C@@H]1[C@@H](OP(=O)(O)OP(=O)(O)OC[C@H]2O[C@@H](n3ccc(=O)[nH]c3=O)[C@H](O)[C@@H]2O)O[C@H](CO)[C@@H](O)[C@@H]1O. The data set is described as follows: purified protein.

The term Ki denotes a measure of affinity in units of concentration, obtained from inhibition or displacement. Read a high Ki as weaker binding. A word on the Km: it is the concentration of substrate that gives half-maximal velocity. What is called kcat is the maximal rate divided by the concentration of active sites. For orientation: kcat/Km means the second-order rate constant that governs catalysis at low substrate concentration.

Sequence of UDP-N-acetylglucosamine (UDP-GlcNAc) 2-epimerase (NmSacA) (A0A0U1RGY0 whole entry): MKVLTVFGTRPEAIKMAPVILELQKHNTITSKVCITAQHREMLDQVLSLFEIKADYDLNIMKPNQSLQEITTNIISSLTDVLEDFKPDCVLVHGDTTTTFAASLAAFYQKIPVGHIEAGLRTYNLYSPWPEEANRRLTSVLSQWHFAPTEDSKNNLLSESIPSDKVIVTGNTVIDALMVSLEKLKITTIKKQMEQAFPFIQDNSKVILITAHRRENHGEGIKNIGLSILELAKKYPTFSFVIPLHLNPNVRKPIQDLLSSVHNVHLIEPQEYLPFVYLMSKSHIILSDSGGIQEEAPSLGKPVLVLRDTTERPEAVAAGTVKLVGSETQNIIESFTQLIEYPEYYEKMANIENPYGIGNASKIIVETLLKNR

In data set [1], `CC(=O)NC1=CO[C@H](CO)[C@@H](O)[C@@H]1O` [D, 2-acetamidoglucal] gave a Ki of 14 mM.
Consider `O=c1ccn([C@@H]2O[C@H](COP(=O)(O)OP(=O)(O)O)[C@@H](O)[C@H]2O)c(=O)[nH]1` [UDP], for which, in data set [1], the affinity corresponds to a Ki of 0.8 mM.
With “UDP-N-acetylglucosamine (UDP-GlcNAc) 2-epimerase (NmSacA) (Neisseria meningitidis Z2491)”, the Km in data set [2] is 63 ± 7.0 mM; in data set [3] it was 5.2 ± 1.1 mM; in data set [4], 3.6 ± 0.5 mM; in data set [5], 51 ± 5.0 mM; in data set [6] it was 20 ± 1.9 mM. Besides, the turnover number (kcat) came to 6.7 ± 0.5 s⁻¹ in data set [2]; 52 ± 5 s⁻¹ in data set [3]; 31 ± 2 s⁻¹ in data set [4]; 7.8 ± 0.3 s⁻¹ in data set [5]; 4.2 ± 0.2 s⁻¹ in data set [6]. Also, the kcat/Km in data set [2] was 110 M⁻¹ s⁻¹; in data set [3], 10000 M⁻¹ s⁻¹; in data set [4], 8600 M⁻¹ s⁻¹; in data set [5] it was 150 M⁻¹ s⁻¹; in data set [6], 210 M⁻¹ s⁻¹.
